PMC12680543

Key:
[1] = biological target: KLMT-1 (C. tropicalis)
[2] = biological target: KSS-1::Strep (C. tropicalis); assay: SEC-MALS; KSS-1::Strep–SKR-1 complex co-expressed in Sf9 and co-purified (StrepTrapXT ATP/Mg wash fraction, ResourceQ, Superdex 200 Increase 10/300 GL); 20 mM Tris pH 7.5, 150 mM NaCl; right-angle static light scattering

## 3xFLAG::KSS-1 (natural protein)
[1]
  half-life of KLMT-1::mNG (fluorescence time lapse of embryos) in kss-1(−) against kss-1(+): 2.9 fold

## SKR-1 (natural protein)
[2]
  stoichiometry N: 1
